Reference: the supplement of paper PMC10567573

B1: NP_116010.1 (parent)
chain: HSLRAVSTDPPHHDHHDEFCLMP

Tests used:
[1] = variants of: B1; assay: protein stability index of a GFP-peptide fusion (GPS, HEK-293T) (PSI 1-6); higher = more stable; conditions: c terminus: native
[2] = variants of: B1; assay: as above; conditions: c terminus: native; remark: listed apart in the source

| Variant | protein stability index [1] | protein stability index [2] |
| --- | --- | --- |
| HSLRAVSTDPPHHDHHDEFCLMA | 3.09 | 2.23 |
| HSLRAVSTDPPHHDHHDMFCLMP | 2.15 | 2.24 |
| HSLRAVSTDPPHHDHHAEFCLMP | 2.44 | 1.76 |
| HSLRAVSTDPPHVDHHDEFCLMP | 2.33 | 1.99 |
| HSLRAVSTDPPHHDHHDEFELMP | 2.5 | 2.34 |
| HSLRAVSTDPPHHDHHDEFCNMP | 3.18 | 2.84 |
| FSLRAVSTDPPHHDHHDEFCLMP | 2.24 |  |
| NSLRAVSTDPPHHDHHDEFCLMP | 3.37 | 1.64 |
| HSLRAVSTDLPHHDHHDEFCLMP | 2.43 | 3.21 |
| HSLRNVSTDPPHHDHHDEFCLMP | 2.54 | 2.18 |
| HSLRAVSTDPPHHDHHDFFCLMP | 2.12 | 3.33 |
| HSLRAVSTDPLHHDHHDEFCLMP | 2.55 | 4.46 |
| HCLRAVSTDPPHHDHHDEFCLMP | 2.64 | 2.73 |
| HSLRAVSTDPPHHDHHFEFCLMP | 2.21 | 3.35 |
| HALRAVSTDPPHHDHHDEFCLMP | 2.31 | 3.34 |
| HSLRAVSTDPPHHDHYDEFCLMP | 2.58 | 2.61 |
| HSRRAVSTDPPHHDHHDEFCLMP | 2.82 | 2.21 |
| HSLRAVSTDPPHHDHHDEFHLMP | 3.74 | 2.41 |
| HSLRAASTDPPHHDHHDEFCLMP | 3 | 2.57 |
| HSLRAVSTDPPHHDHHDEFCLQP | 2.9 | 2.83 |
| HSMRAVSTDPPHHDHHDEFCLMP | 2.43 | 3.08 |
| HSTRAVSTDPPHHDHHDEFCLMP | 2.22 | 2.75 |
| CSLRAVSTDPPHHDHHDEFCLMP | 2.68 | 2.48 |
| HSLRAVSTDPPHHDHHDEFKLMP | 4.78 | 4.4 |
| HSLRAVSTDPPHHDHHDEFCLMI | 2.44 |  |
| HSLRAVSTDPPHHDHHDEFCKMP | 3.1 | 2.07 |

| Variant | protein stability index [1] | protein stability index [2] |
| --- | --- | --- |
| HSLKAVSTDPPHHDHHDEFCLMP | 2.58 | 1.8 |
| HSLRQVSTDPPHHDHHDEFCLMP | 2.5 | 2 |
| HSLRAVSTDPPDHDHHDEFCLMP | 2.73 | 2.2 |
| HSLRAVSHDPPHHDHHDEFCLMP | 2.48 | 1.79 |
| HLLRAVSTDPPHHDHHDEFCLMP | 2.53 | 2.93 |
| HSLRAVSTDPPHHDHHDEFCYMP | 2.39 | 2.2 |
| HSLRAVCTDPPHHDHHDEFCLMP | 2.48 | 2.82 |
| RSLRAVSTDPPHHDHHDEFCLMP | 2.68 | 2.35 |
| HSLRAVSTDPEHHDHHDEFCLMP | 2.72 | 2.81 |
| HSCRAVSTDPPHHDHHDEFCLMP | 2.38 | 1.7 |
| HSLRAVSQDPPHHDHHDEFCLMP | 2.46 | 2.69 |
| HSLRAVSTDPPHHDHHDEFCLMT | 3.02 | 1.75 |
| HSLEAVSTDPPHHDHHDEFCLMP | 3.58 | 2.41 |
| HSLRALSTDPPHHDHHDEFCLMP | 2.35 | 3.23 |
| HSLRAVSTDPSHHDHHDEFCLMP | 2.34 | 2.58 |
| HSNRAVSTDPPHHDHHDEFCLMP | 3.45 | 2.59 |
| HSLRAVSTDPPYHDHHDEFCLMP | 2.46 | 2.19 |
| HSLRAVSTDPPHHDNHDEFCLMP | 2.76 | 2.07 |
| HSLRAVSTNPPHHDHHDEFCLMP | 2.38 | 1.93 |
| HSLCAVSTDPPHHDHHDEFCLMP | 2.69 | 3.21 |
| HSLRAVHTDPPHHDHHDEFCLMP | 2.53 |  |
| HSLRAVSTDPPHHRHHDEFCLMP | 2 | 2.48 |
| HSLRAVSTDPPHHDHHDEGCLMP | 2.25 |  |
| HSLRAVDTDPPHHDHHDEFCLMP | 2.81 | 2.26 |
| HSLRAVSTDPTHHDHHDEFCLMP | 2.24 | 1.9 |
